{"source": "paper PMC6802118", "about": "“Isolation of Artemisia capillaris membrane-bound di-prenyltransferase for phenylpropanoids and redesign of artepillin C in yeast” (Communications Biology, 2019)", "proteins": {"B1": {"name": "AcPT1 (Artemisia capillaris) (protein)", "chain": "ISKVENNVSAQFQRRGYKNHFGQSLHEPLSLQKMDEEKFKLNAASTNNPQFDATHDLVKPTESVISFLEVLFRFIRPYAAVGTVLCIASMSLLTVEKLSDFSPLFFMKVLQALVGAMFMQMWVCGINQICDIELDKINKPSLPLASGELSMTTAITVSALSAIMSFSIGWIASPALFWGFVGWFVVGTAYSANLPWLRWKRFPLTSAFYMLCSRALVVPIGYYLHMQKSIHGGSALLSRPILFAVGMLSAFCISTIFFKDIPDIEGDRMHGIKSLAITLGEKRTFWMCIWILEIAYVAAAFFGATSPITWSKYITVISHLAMALALWTRAKSTDVKNKDAVQSMYYFLWQLFFAEYGLIALVR", "notes": "full CDS, 401 aa incl. predicted 38-aa plastid transit peptide; untagged (pGWB502, 35S promoter); transient expression in Nicotiana benthamiana leaves; microsomes"}}, "key": {"[1]": {"substrate": "CC(C)=CCOP(=O)(O)OP(=O)(O)O", "assay": "HPLC assay of artepillin C formation; non-linear least-squares fit", "format": "biochemical, Artemisia capillaris", "conditions": "N. benthamiana microsomes, 0.5 mM drupanin, 10 mM MgCl2, 30 °C, 20 min, 12.5-200 µM DMAPP, mean ± SE"}, "[2]": {"substrate": "CC(C)=CCc1cc(/C=C/C(=O)O)ccc1O", "assay": "HPLC assay of artepillin C formation; non-linear least-squares fit", "format": "biochemical, Artemisia capillaris", "conditions": "N. benthamiana microsomes, 0.5 mM DMAPP, 10 mM MgCl2, 30 °C, 20 min, 15.6-250 µM drupanin, mean ± SE"}}, "data": [{"protein": "B1", "values": [{"measurement": "Km", "setting": "[1]", "result": "130 ± 20", "unit": "µM"}, {"measurement": "Km", "setting": "[2]", "result": "50 ± 5", "unit": "µM"}]}]}
